Measured values published in US20130344098A1.

Target: anti-Fel d1 mAB 6F9
Assay: sandwich ELISA: mAB 6F9 coated, Fel d1 protein in doubling dilutions 80-0.16 ng/ml, detected with biotinylated mAB 3E4; Fel d1 (ng/ml) at OD50%

EC50: 7.2 ng/mL
Substance: natural Fel d1 (from UniProt P30440 18-109)
